Patent publication US20190185532A1 (UNIVERSITY OF BIRMINGHAM, published 2019)

Key:
[1] = biological target: T1, MMRN2^FL (full-length human MMRN2 with a polyhistidine (His) tag) (human, UniProt Q9H8L6 23-949); assay: far western blot, non-reduced; HEK293T lysates of GFP-tagged proteins probed with MMRN2^FL-His lysate, anti-His detection
T1 construct: mature; Used as lysate of transfected HEK293T cells; Forms large multimers under non-reduced conditions; also called MMRN2 full-length; MMRN2 FL with His tag; not shown: C-terminal BirA and His tags of vector pHL-Avitag3
T1 sequence (looked up): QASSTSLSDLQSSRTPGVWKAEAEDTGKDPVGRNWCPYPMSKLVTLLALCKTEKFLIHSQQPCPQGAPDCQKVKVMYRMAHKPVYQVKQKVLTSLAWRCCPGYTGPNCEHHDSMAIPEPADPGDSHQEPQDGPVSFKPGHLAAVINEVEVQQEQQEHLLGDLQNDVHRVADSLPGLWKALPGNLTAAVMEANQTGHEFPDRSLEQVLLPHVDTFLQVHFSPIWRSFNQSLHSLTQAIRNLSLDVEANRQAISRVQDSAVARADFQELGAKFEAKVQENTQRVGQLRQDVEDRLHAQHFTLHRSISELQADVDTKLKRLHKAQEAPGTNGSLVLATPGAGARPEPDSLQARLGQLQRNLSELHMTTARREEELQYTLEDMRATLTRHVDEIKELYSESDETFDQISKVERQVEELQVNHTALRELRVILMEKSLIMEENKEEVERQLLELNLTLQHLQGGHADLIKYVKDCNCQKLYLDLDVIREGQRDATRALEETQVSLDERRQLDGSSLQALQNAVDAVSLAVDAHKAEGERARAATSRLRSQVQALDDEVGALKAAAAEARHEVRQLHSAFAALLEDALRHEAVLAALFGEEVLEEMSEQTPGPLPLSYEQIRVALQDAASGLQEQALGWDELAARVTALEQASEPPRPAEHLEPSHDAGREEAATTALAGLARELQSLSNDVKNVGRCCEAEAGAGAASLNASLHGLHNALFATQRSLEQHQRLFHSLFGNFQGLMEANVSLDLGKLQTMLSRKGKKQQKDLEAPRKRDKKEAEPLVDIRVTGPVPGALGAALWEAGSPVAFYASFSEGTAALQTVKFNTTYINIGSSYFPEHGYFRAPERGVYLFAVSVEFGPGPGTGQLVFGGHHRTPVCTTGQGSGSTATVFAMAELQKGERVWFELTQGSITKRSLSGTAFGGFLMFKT
Text: We previously identified MMRN2 as a binding partner of CLEC14A, one of the members of the C-type lectin domain (CTLD) group 14 family (4). To test whether any of the other CTLD group 14 family members also bind to MMRN2, we employed far western blotting using MMRN2 protein probe as a surrogate for a primary antibody in a standard western blot set up. The CTLD group 14 family members CLEC14A, CD93 and thrombomodulin were all constructed with a C-terminal green fluorescent protein (GFP) tag (FIG. 1A). Constructs were transfected into HEK293T cells and lysates were separated by SDS-PAGE under non-reducing conditions to keep disulphide bonds intact, then transferred to PVDF membranes and blotted using HEK293T lysates overexpressing full-length human MMRN2 with a polyhistidine (His) tag. MMRN2 protein binding was detected by staining with an anti-His tag antibody.
(§1) Whole cell protein lysates were made by incubating with lysis buffer (1% (v/v) NP40, 10 mM Tris pH7.5, 150 mM NaCl and 1 mM EDTA) and pelleting insoluble material. Standard protocols for western blotting were used. […] The epitope tag of each probed protein was detected with secondary antibody incubation (anti-His or anti-Fc HRP conjugate) and then tertiary anti-mouse HRP for the case of anti-His.

[2] = biological target: T2, CLEC14A-ECD-Fc (human CLEC14A extracellular domain fused to an Fc tag) (human, UniProt Q86T13 22-396); assay: far western blot; HEK293T lysates probed with CLEC14A-ECD-Fc
T2 construct: Expressed in HEK293T cells; also called hCLEC14A-ECD-Fc; C14A-Fc; not shown: human IgG Fc tag
T2 sequence: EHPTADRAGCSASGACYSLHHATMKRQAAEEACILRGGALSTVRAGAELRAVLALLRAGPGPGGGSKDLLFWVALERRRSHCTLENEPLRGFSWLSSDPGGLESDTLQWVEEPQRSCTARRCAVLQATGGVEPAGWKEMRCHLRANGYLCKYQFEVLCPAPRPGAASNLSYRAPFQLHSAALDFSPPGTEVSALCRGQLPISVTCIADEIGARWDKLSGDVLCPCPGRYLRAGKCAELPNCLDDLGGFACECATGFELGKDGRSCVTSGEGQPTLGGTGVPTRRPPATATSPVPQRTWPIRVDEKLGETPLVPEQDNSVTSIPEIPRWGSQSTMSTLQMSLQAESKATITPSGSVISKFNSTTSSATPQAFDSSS
Text: FIG. 2. […] (A) Diagrams of MMRN2 truncation mutants, showing the elastin microfibril interface (EMI) domain, coiled-coil (CC) domain and complement related C1q domain. The minimal CLEC14A binding fragment is highlighted in black. (B,C) HEK293T were transfected with truncation mutants. Lysates were far western blotted under reduced conditions with CLEC14A extracellular domain fused to an Fc tag (CLEC14A-ECD-Fc) and western blotted by use of His tag antibodies. (B) The smallest binding fragment was identified as MMRN2⁴⁸⁷⁻⁸²⁰, MMRN2^FL fails to bind CLEC14A-ECD-Fc. (C) The smallest MMRN2 fragment binding CLEC14A is MMRN2⁵³⁰⁻⁶²⁴. (D) MMRN2⁴⁹⁵⁻⁶⁷⁴ and MMRN2⁴⁹⁵⁻⁶⁰³ bind to streptavidin under reducing conditions after biotinylation. (E) Flow cytometry histograms of HEK293T transfected with GFP tagged CTLD group 14 family members and stained with biotinylated MMRN2⁴⁹⁵⁻⁶⁷⁴ (grey line), confirming binding to CLEC14A and CD93 but not thrombomodulin. Streptavidin-PE was used as a control for background binding (grey shaded).
as §1, with “material.” for “material. Standard protocols for western blotting were used.”

[3] = biological target: T3, mouse CLEC14A-ECD-Fc (murine CLEC14A-ECD fused to a human Fc tag) (mouse; human, UniProt Q8VCP9 22-386); assay: far western blot, reduced and non-reduced
T3 construct: extracellular domain; not shown: human Fc tag
T3 sequence (looked up): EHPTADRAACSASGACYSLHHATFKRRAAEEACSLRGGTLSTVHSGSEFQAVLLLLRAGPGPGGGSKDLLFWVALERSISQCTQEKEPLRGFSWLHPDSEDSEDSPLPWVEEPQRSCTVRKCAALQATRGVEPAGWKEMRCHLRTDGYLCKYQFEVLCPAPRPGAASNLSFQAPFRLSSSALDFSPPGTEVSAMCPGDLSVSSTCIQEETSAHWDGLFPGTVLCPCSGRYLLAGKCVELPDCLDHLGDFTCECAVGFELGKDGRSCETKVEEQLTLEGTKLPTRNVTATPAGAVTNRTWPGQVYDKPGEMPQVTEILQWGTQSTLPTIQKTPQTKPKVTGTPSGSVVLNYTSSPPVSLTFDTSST

[4] = biological target: T3, mouse CLEC14A-ECD-Fc (murine …); assay: far western blot; HEK293T lysate probed with mouse CLEC14A-ECD-Fc

B1: CLEC14A (human, wild type, C-terminal GFP tag, expressed in HEK293T) (receptor)
chain: EHPTADRAGCSASGACYSLHHATMKRQAAEEACILRGGALSTVRAGAELRAVLALLRAGPGPGGGSKDLLFWVALERRRSHCTLENEPLRGFSWLSSDPGGLESDTLQWVEEPQRSCTARRCAVLQATGGVEPAGWKEMRCHLRANGYLCKYQFEVLCPAPRPGAASNLSYRAPFQLHSAALDFSPPGTEVSALCRGQLPISVTCIADEIGARWDKLSGDVLCPCPGRYLRAGKCAELPNCLDDLGGFACECATGFELGKDGRSCVTSGEGQPTLGGTGVPTRRPPATATSPVPQRTWPIRVDEKLGETPLVPEQDNSVTSIPEIPRWGSQSTMSTLQMSLQAESKATITPSGSVISKFNSTTSSATPQAFDSSSAVVFIFVSTAVVVLVILTMTVLGLVKLCFHESPSSQPRKESMGPPGLESDPEPAALGSSSAHCTNNGVKVGDCDLRDRAEGALLAESPLGSSDA
notes: On cells in flow cytometry; as non-reduced HEK293T lysate in far western blots; also called CLEC14A wt; cell surface expressed CLEC14A; not shown: C-terminal green fluorescent protein (GFP) tag from vector pEGFP-N1
B1: binds [1].

B2: MMRN2^495-674 (human, expressed in HEK293T, His tag) (ligand)
chain: QKLYLDLDVIREGQRDATRALEETQVSLDERRQLDGSSLQALQNAVDAVSLAVDAHKAEGERARAATSRLRSQVQALDDEVGALKAAAAEARHEVRQLHSAFAALLEDALRHEAVLAALFGEEVLEEMSEQTPGPLPLSYEQIRVALQDAASGLQEQALGWDELAARVTALEQASEPPRP
notes: not shown: C-terminal BirA and His tags of vector pHL-Avitag3
B2: binds [2]; binds [3].

B3: CD93 (human, wild type, C-terminal GFP tag, expressed in HEK293T) (receptor)
chain: TGADTEAVVCVGTACYTAHSGKLSAAEAQNHCNQNGGNLATVKSKEEAQHVQRVLAQLLRREAALTARMSKFWIGLQREKGKCLDPSLPLKGFSWVGGGEDTPYSNWHKELRNSCISKRCVSLLLDLSQPLLPSRLPKWSEGPCGSPGSPGSNIEGFVCKFSFKGMCRPLALGGPGQVTYTTPFQTTSSSLEAVPFASAANVACGEGDKDETQSHYFLCKEKAPDVFDWGSSGPLCVSPKYGCNFNNGGCHQDCFEGGDGSFLCGCRPGFRLLDDLVTCASRNPCSSSPCRGGATCVLGPHGKNYTCRCPQGYQLDSSQLDCVDVDECQDSPCAQECVNTPGGFRCECWVGYEPGGPGEGACQDVDECALGRSPCAQGCTNTDGSFHCSCEEGYVLAGEDGTQCQDVDECVGPGGPLCDSLCFNTQGSFHCGCLPGWVLAPNGVSCTMGPVSLGPPSGPPDEEDKGEKEGSTVPRAATASPTRGPEGTPKATPTTSRPSLSSDAPITSAPLKMLAPSGSPGVWREPSIHHATAASGPQEPAGGDSSVATQNNDGTDGQKLLLFYILGTVVAILLLLALALGLLVYRKRRAKREEKKEKKPQNAADSYSWVPERAESRAMENQYSPTPGTDC
notes: On cells in flow cytometry; as non-reduced HEK293T lysate in far western blots; also called CD93 wild type (wt); cell surface expressed CD93; not shown: C-terminal green fluorescent protein (GFP) tag from vector pEGFP-N1
B3: binds [1].

B4: mouse MMRN2^495-678 (expressed in HEK293T, His tag) (ligand)
chain: QRVNSDVDVAPEGHRDVMHTLEETQVSLDEQHQLDGSSLQALQSTVDAMSSAMDAYRGEGERARAERARIRSQLRALDHAVEALKTAANGTRKEIRLLHGSFTALLEDALRHQAVLAALFGEEMIDEMSEEAPRPLPLDYEQIRLALQDAASGLQEQAIGWEDLATRVEALEKAAGGFVEQHPQ
notes: as for B2
B4: binds [4].
